Source: paper PMC4557121 (2015)

Tests used:
Assay in all cases: SPR
[1] = target: M2
[2] = target: A2 (UniProt Q13501)
[3] = target: M6
[4] = target: M10
[5] = target: A2 with residue 3 substituted with alanine (UniProt Q13501)
[6] = target: A2 with residue 9 substituted with alanine (UniProt Q13501)
[7] = target: A2 with residue 4 substituted with alanine (UniProt Q13501)
[8] = target: A2 with residue 7 substituted with alanine (UniProt Q13501)
[9] = target: M5
[10] = target: M1
[11] = target: M11

Kd [1]: 402 nM
Kd [2]: 10.2 nM
Kd [3]: 0.142 nM
Kd [4]: 381 nM
Kd [5]: 3590 nM
Kd [6]: 35600 nM
Kd [7]: 4320 nM
Kd [8]: 11800 nM
Kd [9]: 110 nM
Kd [10]: 1640 nM
Kd [11]: 73.1 nM
B1: purified TRB3 protein (natural protein)
chain: MRATPLAAPAGSLSRKKRLELDDNLDTERPVQKRARSGPQPRLPPCLLPLSPPTAPDRATAVATASRLGPYVLLEPEEGGRAYQALHCPTGTEYTCKVYPVQEALAVLEPYARLPPHKHVARPTEVLAGTQLLYAFFTRTHGDMHSLVRSRHRIPEPEAAVLFRQMATALAHCHQHGLVLRDLKLCRFVFADRERKKLVLENLEDSCVLTGPDDSLWDKHACPAYVGPEILSSRASYSGKAADVWSLGVALFTMLAGHYPFQDSEPVLLFGKIRRGAYALPAGLSAPARCLVRCLLRREPAERLTATGILLHPWLRQDPMPLAPTRSHLWEAAQVVPDGLGLDEAREEEGDREVVLYG
